Experimental data as given in the Immune Epitope Database (IEDB).

Tests used:
[1] = biological target: HLA-B*15:02; experiment: IEDB peptide-MHC binding, purified MHC/direct/fluorescence; filed as Kd, often an IC50 or EC50 that approximates it; ≥ and ≤ were set here for values at or beyond the usual limits of such assays; details: source organism: dengue virus type 4
[2] = biological target: HLA-B*46:01; experiment: as above
[3] = biological target: HLA-A*02:50; experiment: as above; details: source organism: Rickettsia typhi
[4] = biological target: HLA-A*30:01; experiment: as above; details: source organism: Rickettsia typhi
[5] = biological target: HLA-B*51:01; experiment: as above; details: source organism: Rickettsia typhi
[6] = biological target: HLA-A*29:02; experiment: as above; details: source organism: Rickettsia typhi
[7] = biological target: HLA-A*02:12; experiment: as above
[8] = biological target: HLA-B*15:01; experiment: as above
[9] = biological target: HLA-B*44:02; experiment: as above
[10] = biological target: HLA-A*02:19; experiment: as above; details: source organism: Rickettsia typhi
[11] = biological target: HLA-B*57:01; experiment: as above
[12] = biological target: HLA-A*03:01; experiment: as above
[13] = biological target: HLA-A*02:10; experiment: as above; details: source organism: Rickettsia typhi
[14] = biological target: HLA-A*80:01; experiment: as above; details: source organism: Rickettsia typhi
[15] = biological target: HLA-A*24:03; experiment: as above; details: source organism: Rickettsia typhi
[16] = biological target: HLA-A*23:01; experiment: as above; details: source organism: Rickettsia typhi
[17] = biological target: HLA-A*69:01; experiment: as above
[18] = biological target: HLA-A*02:11; experiment: as above
[19] = biological target: HLA-A*26:03; experiment: as above; details: source organism: Ravn virus - Ravn, Kenya, 1987
[20] = biological target: HLA-B*08:02; experiment: as above
[21] = biological target: HLA-A*02:01; experiment: as above
[22] = biological target: HLA-A*68:02; experiment: as above; details: source organism: Marburg virus - Musoke, Kenya, 1980
[23] = biological target: HLA-B*58:01; experiment: as above
[24] = biological target: HLA-B*40:01; experiment: as above
[25] = biological target: HLA-A*26:02; experiment: as above; details: source organism: Ravn virus - Ravn, Kenya, 1987
[26] = biological target: HLA-B*48:01; experiment: as above
[27] = biological target: HLA-B*07:02; experiment: as above
[28] = biological target: HLA-B*39:01; experiment: as above; details: source organism: Ravn virus - Ravn, Kenya, 1987
[29] = biological target: HLA-A*01:01; experiment: as above
[30] = biological target: HLA-B*27:05; experiment: as above
[31] = biological target: HLA-A*31:01; experiment: as above
[32] = biological target: HLA-A*11:01; experiment: as above
[33] = biological target: HLA-B*18:01; experiment: as above
[34] = biological target: HLA-B*08:03; experiment: as above; details: source organism: Ravn virus - Ravn, Kenya, 1987
[35] = biological target: HLA-B*15:17; experiment: as above; details: source organism: Marburg virus - Musoke, Kenya, 1980
[36] = biological target: HLA-A*30:01; experiment: IEDB peptide-MHC binding, purified MHC/competitive/fluorescence; filed as Kd, often an IC50 or EC50 that approximates it; ≥ and ≤ were set here for values at or beyond the usual limits of such assays; details: source organism: Giardia lamblia ATCC 50803
[37] = biological target: HLA-B*39:01; experiment: as above; details: source organism: Giardia lamblia ATCC 50803
[38] = biological target: HLA-B*15:09; experiment: as above; details: source organism: Giardia lamblia ATCC 50803
[39] = biological target: HLA-B*15:17; experiment: as above; details: source organism: Giardia lamblia ATCC 50803
[40] = biological target: HLA-A*02:03; experiment: IEDB peptide-MHC binding, purified MHC/direct/fluorescence; filed as Kd, often an IC50 or EC50 that approximates it; ≥ and ≤ were set here for values at or beyond the usual limits of such assays; details: source organism: Giardia lamblia ATCC 50803
[41] = biological target: HLA-B*38:01; experiment: as above; details: source organism: Giardia lamblia ATCC 50803
[42] = biological target: HLA-A*26:01; experiment: as above; details: source organism: Giardia lamblia ATCC 50803
[43] = biological target: HLA-B*08:01; experiment: as above; details: source organism: Giardia lamblia ATCC 50803
[44] = source organism: Rickettsia typhi
[45] = source organism: Rickettsia prowazekii
[46] = source organism: Marburg virus - Musoke, Kenya, 1980
[47] = source organism: Giardia lamblia ATCC 50803

Q: AQEDDQYVF was tested. Which Kd [1] did it give?
A: ≥ 20 µM

Q: And the Kd ([2]; source organism: dengue virus type 4)?
A: ≥ 20 µM

Q: What does the source list for ELYPTVNTY?
A: Kd [3]: ≥ 20 µM; Kd [4]: ≥ 20 µM; Kd [5]: ≥ 20 µM; Kd [6]: 0.055 µM; Kd [7, 44]: ≥ 20 µM; Kd [8, 45]: 0.228 µM; Kd [9, 44]: ≥ 20 µM; Kd [10]: ≥ 20 µM; Kd [11, 44]: ≥ 20 µM; Kd [12, 45]: 2.02 µM; Kd [13]: ≥ 20 µM; Kd [14]: 4.5 µM; Kd [15]: ≥ 20 µM; Kd [16]: ≥ 20 µM; Kd [17, 45]: 14.5 µM; Kd [18, 44]: ≥ 20 µM

Q: Which Kd [19] does the source give for AEALLADGL here?
A: ≥ 20 µM

Q: And the Kd ([20]; source organism: Ravn virus - Ravn, Kenya, 1987)?
A: ≥ 20 µM

Q: What about the Kd [21, 46] of the same sequence?
A: ≥ 20 µM

Q: And the Kd [22]?
A: ≥ 20 µM

Q: What about the Kd [23, 46] of the same sequence?
A: ≥ 20 µM

Q: What about the Kd [24, 46] of the same sequence?
A: 0.0113 µM

Q: What about the Kd [25] of the same sequence?
A: ≥ 20 µM

Q: And the Kd [9, 46]?
A: ≥ 10 µM

Q: What about the Kd [26, 46] of the same sequence?
A: ≥ 20 µM

Q: What about the Kd [11, 46] of the same sequence?
A: ≥ 20 µM

Q: And the Kd [27, 46]?
A: ≥ 20 µM

Q: What about the Kd [28] of the same sequence?
A: ≥ 20 µM

Q: What about the Kd [29, 46] of the same sequence?
A: ≥ 20 µM

Q: What about the Kd [30, 46] of the same sequence?
A: ≥ 20 µM

Q: And the Kd [31, 46]?
A: ≥ 20 µM

Q: What about the Kd [32, 46] of the same sequence?
A: ≥ 20 µM

Q: What about the Kd [33, 46] of the same sequence?
A: 1.75 µM

Q: What about the Kd [34] of the same sequence?
A: ≥ 20 µM

Q: And the Kd [17, 46]?
A: ≥ 20 µM

Q: What about the Kd [35] of the same sequence?
A: ≥ 20 µM

Q: Which Kd [36] does the source give for LPVFATIGL here?
A: ≥ 20 µM

Q: And the Kd [37]?
A: 0.0902 µM

Q: And the Kd [38]?
A: 1.98 µM

Q: What about the Kd [39] of the same sequence?
A: ≥ 20 µM

Q: And the Kd [20, 47]?
A: ≥ 20 µM

Q: What about the Kd [21, 47] of the same sequence?
A: 7.53 µM

Q: What about the Kd [23, 47] of the same sequence?
A: ≥ 20 µM

Q: And the Kd [24, 47]?
A: ≥ 20 µM

Q: And the Kd [7, 47]?
A: 0.393 µM

Q: And the Kd [8, 47]?
A: ≥ 20 µM

Q: What about the Kd [26, 47] of the same sequence?
A: ≥ 20 µM

Q: And the Kd [11, 47]?
A: ≥ 20 µM

Q: What about the Kd [27, 47] of the same sequence?
A: 0.0583 µM

Q: And the Kd [12, 47]?
A: ≥ 20 µM

Q: And the Kd [40]?
A: ≥ 20 µM

Q: And the Kd [41]?
A: ≥ 20 µM

Q: And the Kd [29, 47]?
A: ≥ 20 µM

Q: What about the Kd [30, 47] of the same sequence?
A: ≥ 20 µM

Q: What about the Kd [2, 47] of the same sequence?
A: ≥ 20 µM

Q: What about the Kd [31, 47] of the same sequence?
A: ≥ 20 µM

Q: What about the Kd [32, 47] of the same sequence?
A: ≥ 20 µM

Q: And the Kd [33, 47]?
A: 3.1 µM

Q: What about the Kd [42] of the same sequence?
A: ≥ 20 µM

Q: And the Kd [43]?
A: ≥ 20 µM

Q: And the Kd [17, 47]?
A: 0.0117 µM

Q: And the Kd [18, 47]?
A: 0.146 µM
